US9416162B2, “Peptides having reduced toxicity that stimulate cholesterol efflux” (The Regents of the University of California, priority 2013, dated 2016)
Non-standard residues stand in square brackets, D forms with d. No end group written: not given here. Cit = NC(=O)NCCC[C@H](N)C(=O)O

Experiments:
Wistar rats = experiment: High-dose IV toxicity of ATI-5261 in rats (plasma ALT, AST, TG, unesterified cholesterol); format: in vivo, rat
Experimental: (§1) Peptides or peptidomimetics of the invention can be evaluated for toxicity using known assays. Examples of such assays are illustrated in the Examples section. Toxicity is typically assayed in a rat, rabbit, mouse, monkey or dog model. In an illustrative assay, such as that described in Example 1, a peptide is administered intravenously using a rabbit or rat model at doses of 3, 30, and 300 mg/kg and vehicle alone is also administered at 48 hour intervals for a total of four injections. Safety chemistry panels including plasma alanine aminotransferase (ALT), aspartate amino transferase (AST), and creatine kinase (CK) can then be determined in the blood. The presence of elevated levels of these enzymes in the blood compared to control normal values is indicative of toxicity. A peptide of the invention is typically considered to be non-toxic or to have little toxicity, when the results using the highest dose, 300 mg/kg in this illustrative assay, are equivalent (fall within the standard deviation) of the values measured for the control animals that received vehicle alone, or are no more than 2 or 3 times background obtained with vehicle alone. In some embodiments, a toxicity assay is performed where the toxicity of a peptide of the invention is compared to that to ATI-5261. […]
(§2) Cytotoxicity of an HDL mimetic peptide ATI-5261 at high doses was evaluated in rats and rabbits (FIG. 1). […]

[1] = tested on: New Zealand White rabbits; experiment: High-dose IV bolus toxicity of ATI-5261 in rabbits (plasma ALT, AST, TG, unesterified cholesterol); format: in vivo, rabbit; conditions: male New Zealand White rabbits, single IV bolus 3, 30 or 300 mg/kg
Text: as §1, with “In an illustrative assay, such as that described in Example 1, a peptide is administered intravenously using a rabbit or rat model at doses of 3, 30, and 300 mg/kg and vehicle alone is also administered at 48 hour intervals for a total of four injections.” left out, “alone.” for “alone. In some embodiments, a toxicity assay is performed where the toxicity of a peptide of the invention is compared to that to ATI-5261.”
as §2
For the experiments in FIG. 2, male chow-fed Wistar rats (Panels A and B) were administered ATI-5261 at doses of 3, 30, and 300 mg/kg as described in FIG. 1. Plasma triglyceride (TG, Panel A) and unesterified cholesterol (Panel B) concentrations were determined enzymatically at the times indicated. […]

apoE−/− mice = experiment: Macrophage reverse cholesterol transport (RCT) to feces in vivo; set-up: species or system mouse; conditions: male apoE−/− mice, IP lipid-free peptide 10 or 30 mg/kg
Experimental: J774 macrophage foam-cells (acetylated LDL, 100 μg/ml) labeled with [^3H]cholesterol were injected IP into male, atherosclerotic apoE deficient (apoE^−/−) mice 5 months of age together with vehicle alone (PBS) or with lipid-free CS6253 peptide at doses of 10 or 30 mg/kg. Feces were collected at 24 h for assessment of [^3H]sterol. Values are means±SD, n=5 mice per group.

SR-B1 = biological target: T1, SR-B1 (Rattus norvegicus, UniProt P97943); experiment: SR-B1 mediated cholesterol efflux from Fu5AH cells; format: cell-based; conditions: 50 μg peptide/ml serum-free medium
T1 construct: endogenous in cells; host or cells: Fu5AH cells
T1 sequence (P97943 1-509): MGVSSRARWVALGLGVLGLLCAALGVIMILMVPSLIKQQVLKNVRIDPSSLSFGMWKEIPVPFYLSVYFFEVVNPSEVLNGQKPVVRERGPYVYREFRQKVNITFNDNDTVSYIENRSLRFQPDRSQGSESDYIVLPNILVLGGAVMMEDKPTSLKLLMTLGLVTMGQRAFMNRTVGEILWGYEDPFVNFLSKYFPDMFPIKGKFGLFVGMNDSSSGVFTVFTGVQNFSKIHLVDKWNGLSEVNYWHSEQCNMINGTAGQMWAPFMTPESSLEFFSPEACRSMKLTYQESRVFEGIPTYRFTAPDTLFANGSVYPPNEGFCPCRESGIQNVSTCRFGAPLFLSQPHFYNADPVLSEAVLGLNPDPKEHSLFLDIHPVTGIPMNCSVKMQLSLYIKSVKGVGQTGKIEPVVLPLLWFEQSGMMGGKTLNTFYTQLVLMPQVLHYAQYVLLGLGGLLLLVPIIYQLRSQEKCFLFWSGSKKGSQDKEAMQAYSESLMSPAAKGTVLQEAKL
Experimental: To further evaluate potential anti-atherogenic mechanisms of CS6253, Fu5AH cells labeled with [3H]cholesterol were used in efflux experiments. The citrulline form of LeuATI-5261 (CS6253) lipidated with POPC was used as a cholesterol efflux acceptor at 50 μg peptide/ml serum-free medium. Panel A-Time-course for SR-B1 mediated cholesterol efflux from cells. […] Panel B—Comparison between CS6253 and ATI-5261 in mediating cellular cholesterol efflux via SRB1. [3H]cholesterol labeled Fu5AH cells were incubated with either lipid-free acceptors or acceptors formulated with POPC.

hamsters = experiment: Lipoprotein profile in hamsters after sc injection (ion mobility, 2D gel); format: in vivo, hamster
Experimental: This example employed peptide T5237-4 EVCit[…]it[…] (SEQ ID NO:2) (Cit=citrulline). […] Following removal of albumin by centrifugations plasma was injected and lipoproteins separated with gas-phase differential electrophoretic macromolecular mobility-based method (ion mobility, or IM) (Caulfield et al. Clin Chem 2008 54:8 1307-16). […] The panel in the upper right hand corner is derived from a 2D gel separation (size and charge separation).

[2] = hamsters, 10, 30 and 100 mg/kg sc, plasma 4 h, dose-response

Row | Substance | plasma triglycerides and cholesterol (Wistar rats; male Wistar rats, IV 3, 30, 300 mg/kg) | cytotoxic response (plasma ALT and AST) (Wistar rats; male chow-fed Wistar rats, IV 3, 30 and 300 mg/kg at 48 h intervals, 4 injections) | cytotoxic response (plasma ALT and AST) [1] | plasma triglycerides and cholesterol [1] | macrophage RCT, [3H]sterol in feces at 24 h (apoE−/− mice) | SR-B1 mediated cholesterol efflux (SR-B1) | preβ-HDL (2D gel, apoA-I antibody) (hamsters; hamsters, 100 mg/kg sc, 1 h, 2 h, and 4 h) | LDL (hamsters; [2]) | small HDL (hamsters; [2])
1 | ATI-5261: HDL mimetic peptide, parent peptide; triglyceride elevating and muscle toxic peptide used as positive control (EVRSKLEEWFAAFREFAEEFLARLKS) [reference compound] | increased plasma triglycerides and cholesterol | induced a cytotoxic response | induced a cytotoxic response | increased plasma triglycerides and cholesterol |  |  |  |  | 
2 | EVCitSKLEEWLAALCitELAEELLARLKS (SEQ ID NO:2) (EV[Cit]SKLEEWLAAL[Cit]ELAEELLARLKS) [CS6253, citrulline form of LeuATI-5261, R3,14→Citrulline, 26-mer] |  |  |  |  | stimulated macrophage RCT | relatively poor activity | preβ-HDL increase | LDL lowering | small HDL increase
